# T1: human HER4 recombinant protein (human, UniProt Q15303 26-649, limits assumed)
# T1 sequence (looked up): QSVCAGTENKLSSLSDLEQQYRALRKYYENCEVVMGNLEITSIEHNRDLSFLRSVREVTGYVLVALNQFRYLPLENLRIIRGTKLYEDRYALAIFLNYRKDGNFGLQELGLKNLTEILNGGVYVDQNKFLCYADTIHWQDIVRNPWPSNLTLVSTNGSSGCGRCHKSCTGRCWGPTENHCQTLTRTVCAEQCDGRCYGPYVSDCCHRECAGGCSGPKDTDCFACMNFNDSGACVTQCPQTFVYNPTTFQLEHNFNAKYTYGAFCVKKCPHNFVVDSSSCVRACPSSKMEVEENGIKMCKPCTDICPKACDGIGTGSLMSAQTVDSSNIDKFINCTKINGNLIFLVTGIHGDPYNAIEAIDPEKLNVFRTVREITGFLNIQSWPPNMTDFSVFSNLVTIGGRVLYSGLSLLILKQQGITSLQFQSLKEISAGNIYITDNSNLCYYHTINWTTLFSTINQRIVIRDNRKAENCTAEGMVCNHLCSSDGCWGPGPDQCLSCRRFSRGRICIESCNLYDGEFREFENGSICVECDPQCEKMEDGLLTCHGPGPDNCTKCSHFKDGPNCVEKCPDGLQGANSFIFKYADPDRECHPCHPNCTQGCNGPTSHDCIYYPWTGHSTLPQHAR
# T2: human Sema3A recombinant protein (human, UniProt Q14563 21-771, limits assumed)
# T2 sequence (looked up): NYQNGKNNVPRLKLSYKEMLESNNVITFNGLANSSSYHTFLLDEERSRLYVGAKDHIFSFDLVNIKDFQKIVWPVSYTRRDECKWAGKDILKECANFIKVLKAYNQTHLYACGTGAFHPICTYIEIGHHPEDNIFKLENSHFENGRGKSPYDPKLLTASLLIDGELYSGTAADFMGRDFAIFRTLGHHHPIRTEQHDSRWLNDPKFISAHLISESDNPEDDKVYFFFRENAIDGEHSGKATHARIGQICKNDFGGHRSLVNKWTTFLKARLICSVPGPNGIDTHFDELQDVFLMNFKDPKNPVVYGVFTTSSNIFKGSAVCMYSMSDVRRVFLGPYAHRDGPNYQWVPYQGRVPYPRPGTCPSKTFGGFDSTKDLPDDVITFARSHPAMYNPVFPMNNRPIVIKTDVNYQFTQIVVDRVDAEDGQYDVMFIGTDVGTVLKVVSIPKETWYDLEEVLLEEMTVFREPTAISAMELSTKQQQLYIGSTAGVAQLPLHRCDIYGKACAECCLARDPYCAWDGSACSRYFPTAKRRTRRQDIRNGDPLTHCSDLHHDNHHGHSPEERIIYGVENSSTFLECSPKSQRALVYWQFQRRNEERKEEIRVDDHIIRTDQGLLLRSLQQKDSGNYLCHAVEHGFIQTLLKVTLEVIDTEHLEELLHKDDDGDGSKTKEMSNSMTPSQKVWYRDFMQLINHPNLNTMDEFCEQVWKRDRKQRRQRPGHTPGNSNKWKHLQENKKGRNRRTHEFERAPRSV
# B1: AZD9592-Ab (bispecific antibody, human IgG1, kappa, lambda)
# anti EGFR heavy chain: QVQLVQSGAEVKKPGSSVKVSCKASGGTFSDNDFSWVRQAPGQGLEWMGAIVAVFRTETYAQKFQDRVKITADISTRTTYMELSSLRSEDTAVYYCARRLMSAISGPGAPLLMWGQGTLVTVSSASTKGPSVCPLAPSSKSTSGGTAALGCLVKDYFPEPVTVSWNSGALTSGVHTFPAVLQSSGLYSLSSVVTVPSSSLGTQTYICNVNHKPSNTKVDKRVEPKSVDKTHTCPPCPAPEFEGGPSVFLFPPKPKDTLMISRTPEVTCVVVDVSHEDPEVKFNWYVDGVEVHNAKTKPREEQYNSTYRVVSVLTVLHQDWLNGKEYKCKVSNKALPASIEKTISKAKGQPREPQVYTLPPCREEMTKNQVSLWCLVKGFYPSDIAVEWESNGQPENNYKTTPPVLDSDGSFFLYSKLTVDKSRWQQGNVFSCSVMHEALHNHYTQKSLSLSPGK
# anti EGFR light chain: QSALTQPRSVSGSPGQSVTISCTGTSSDVGGYNYVSWYQQHPGKAPKLMIYDVSKRPSGVPDRFSGSKSGNTASLTISGLQAEDEADYYCSSYTSSDTLEIFGGGTKLTVLGQPKAAPSVTLFPPCSEELQANKATLVCLISDFYPGAVTVAWKADSSPVKAGVETTTPSKQSNNKYAASSYLSLTPEQWKSHRSYSCQVTHEGSTVEKTVAPTEVS
# anti cMET heavy chain: QVQLVQSGAEVKKPGASVKVSCKASGYTFTDYYIHWVRQATGQGLEWMGWMNPNSGNTGYAQKFQGRVTMTRDTSISTAYMELSSLRSEDTAVYYCARGQGYTHSWGQGTMVTVSSASTKGPSVFPLAPSSKSTSGGTAALGCLVKDYFPEPVTVSWNSGALTSGVHTFPAVLQSSGLYSLSSVVTVPSSSLGTQTYICNVNHKPSNTKVDKRVEPKSCDKTHTCPPCPAPEFEGGPSVFLFPPKPKDTLMISRTPEVTCVVVDVSHEDPEVKFNWYVDGVEVHNAKTKPREEQYNSTYRVVSVLTVLHQDWLNGKEYKCKVSNKALPASIEKTISKAKGQPREPQVCTLPPSREEMTKNQVSLSCAVKGFYPSDIAVEWESNGQPENNYKTTPPVLDSDGSFFLVSKLTVDKSRWQQGNVFSCSVMHEALHNHYTQKSLSLSPGK
# anti cMET light chain: DIQMTQSPSTLSASVGDRVTITCRASEGIYHWLAWYQQKPGKAPKLLIYKASSLASGVPSRFSGSGSGTEFTLTISSLQPDDFATYYCQQYSNYPPTFGGGTKLEIKRTVAAPSVFIFPPSDEQLKSGTASVVCLLNNFYPREAKVQWKVDNALQSGNSQESVTEQDSKDSTYSLSSTLTLSKADYEKHKVYACEVTHQGLSSPVTKSFNRGEC
# notes: also called RAA22/B09-TM
# Assays:
# [1] = molecular target: human HER2 recombinant protein (human, UniProt P04626 23-652); test: ELISA, coated human HER2, anti-human Fc-HRP
# Method: (§1) Binding specificity was tested by ELISA according to the standard protocol. Specifically, 96-well plates were coated with 100 ng/well human EGFR, human HER2, human HER3, human HER4, human cMET, human Sema3A recombinant protein in PBS, incubated overnight at 4° C. Plates were washed twice by TBS+0.05% Tween20. 200 μL blocking buffer (2% BSA in PBS) was added to each well and incubated at 37° C. for 2 h. After wash, Serial diluted antibodies were added to the ELISA plate with 100 μL per well and incubated for 1 h at room temperature. Then plates were washed for 3 times. HRP conjugated anti-human Fc antibody solution (Abcam, ab98624) was added to the plate with 100 μL per well. The plates were incubated at room temperature for 1 h and then washed for 3 times. […] Finally, read the absorbance at A₄₅₀ and A₆₃₀.
# [2] = molecular target: T1, human HER4 recombinant protein; test: ELISA, coated human HER4, anti-human Fc-HRP
# Method: as §1
# Human cMET = molecular target: T3, Human cMET (human); test: ELISA, coated human cMET, anti-human Fc-HRP
# T3 construct: recombinant protein; also called human cMET recombinant protein
# T3 sequence (P08581 whole entry): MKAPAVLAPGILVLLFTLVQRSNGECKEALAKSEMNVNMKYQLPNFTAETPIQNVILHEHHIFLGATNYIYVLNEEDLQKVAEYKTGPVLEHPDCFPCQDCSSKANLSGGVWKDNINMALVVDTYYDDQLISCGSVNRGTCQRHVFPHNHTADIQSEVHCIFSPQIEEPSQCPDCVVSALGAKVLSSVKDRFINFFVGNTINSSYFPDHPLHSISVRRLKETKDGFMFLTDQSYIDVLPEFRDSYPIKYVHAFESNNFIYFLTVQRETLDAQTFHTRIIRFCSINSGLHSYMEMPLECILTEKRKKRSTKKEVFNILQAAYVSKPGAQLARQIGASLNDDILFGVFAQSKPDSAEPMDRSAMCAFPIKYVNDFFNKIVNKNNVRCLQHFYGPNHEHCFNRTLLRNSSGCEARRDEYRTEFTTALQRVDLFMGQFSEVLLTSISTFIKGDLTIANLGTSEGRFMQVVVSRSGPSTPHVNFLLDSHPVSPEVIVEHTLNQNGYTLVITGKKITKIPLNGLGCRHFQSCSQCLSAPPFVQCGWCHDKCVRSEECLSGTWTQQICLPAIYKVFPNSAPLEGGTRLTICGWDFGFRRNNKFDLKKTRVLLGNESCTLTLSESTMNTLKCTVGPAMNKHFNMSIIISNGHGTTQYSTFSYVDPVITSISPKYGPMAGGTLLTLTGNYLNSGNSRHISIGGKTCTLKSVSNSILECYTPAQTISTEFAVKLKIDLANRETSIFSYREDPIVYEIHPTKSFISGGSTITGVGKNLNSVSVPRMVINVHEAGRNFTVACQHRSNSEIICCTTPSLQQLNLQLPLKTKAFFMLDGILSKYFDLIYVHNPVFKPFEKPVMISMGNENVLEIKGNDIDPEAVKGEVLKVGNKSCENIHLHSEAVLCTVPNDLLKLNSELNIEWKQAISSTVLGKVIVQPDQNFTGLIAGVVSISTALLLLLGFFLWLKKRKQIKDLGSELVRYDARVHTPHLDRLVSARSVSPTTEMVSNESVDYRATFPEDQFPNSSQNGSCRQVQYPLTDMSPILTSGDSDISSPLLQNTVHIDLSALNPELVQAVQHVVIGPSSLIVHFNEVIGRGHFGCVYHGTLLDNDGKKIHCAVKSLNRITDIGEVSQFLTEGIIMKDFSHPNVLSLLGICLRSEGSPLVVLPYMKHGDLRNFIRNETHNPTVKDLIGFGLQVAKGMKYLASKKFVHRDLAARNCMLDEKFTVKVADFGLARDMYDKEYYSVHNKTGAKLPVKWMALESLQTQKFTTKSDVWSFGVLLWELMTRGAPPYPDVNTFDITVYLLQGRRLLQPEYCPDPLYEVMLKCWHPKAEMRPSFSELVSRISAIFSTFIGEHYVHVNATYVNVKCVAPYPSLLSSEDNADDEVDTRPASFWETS
# Method: as §1
# [3] = molecular target: T2, human Sema3A recombinant protein; test: ELISA, coated human Sema3A, anti-human Fc-HRP
# Method: as §1
# [4] = molecular target: T4, EGFR on EGFR and cMET co-expressed tumor cell lines (UniProt P00533 25-1210, limits assumed); test: flow cytometry, A431 cells (co-express EGFR and cMET; both arms contribute)
# T4 construct: whole, on cells
# [5] = molecular target: T5, cMET on EGFR and cMET co-expressed tumor cell lines (UniProt P08581 25-1390, limits assumed); test: as above
# T5 construct: whole, on cells
# T5 sequence (P08581 25-1390 limits assumed): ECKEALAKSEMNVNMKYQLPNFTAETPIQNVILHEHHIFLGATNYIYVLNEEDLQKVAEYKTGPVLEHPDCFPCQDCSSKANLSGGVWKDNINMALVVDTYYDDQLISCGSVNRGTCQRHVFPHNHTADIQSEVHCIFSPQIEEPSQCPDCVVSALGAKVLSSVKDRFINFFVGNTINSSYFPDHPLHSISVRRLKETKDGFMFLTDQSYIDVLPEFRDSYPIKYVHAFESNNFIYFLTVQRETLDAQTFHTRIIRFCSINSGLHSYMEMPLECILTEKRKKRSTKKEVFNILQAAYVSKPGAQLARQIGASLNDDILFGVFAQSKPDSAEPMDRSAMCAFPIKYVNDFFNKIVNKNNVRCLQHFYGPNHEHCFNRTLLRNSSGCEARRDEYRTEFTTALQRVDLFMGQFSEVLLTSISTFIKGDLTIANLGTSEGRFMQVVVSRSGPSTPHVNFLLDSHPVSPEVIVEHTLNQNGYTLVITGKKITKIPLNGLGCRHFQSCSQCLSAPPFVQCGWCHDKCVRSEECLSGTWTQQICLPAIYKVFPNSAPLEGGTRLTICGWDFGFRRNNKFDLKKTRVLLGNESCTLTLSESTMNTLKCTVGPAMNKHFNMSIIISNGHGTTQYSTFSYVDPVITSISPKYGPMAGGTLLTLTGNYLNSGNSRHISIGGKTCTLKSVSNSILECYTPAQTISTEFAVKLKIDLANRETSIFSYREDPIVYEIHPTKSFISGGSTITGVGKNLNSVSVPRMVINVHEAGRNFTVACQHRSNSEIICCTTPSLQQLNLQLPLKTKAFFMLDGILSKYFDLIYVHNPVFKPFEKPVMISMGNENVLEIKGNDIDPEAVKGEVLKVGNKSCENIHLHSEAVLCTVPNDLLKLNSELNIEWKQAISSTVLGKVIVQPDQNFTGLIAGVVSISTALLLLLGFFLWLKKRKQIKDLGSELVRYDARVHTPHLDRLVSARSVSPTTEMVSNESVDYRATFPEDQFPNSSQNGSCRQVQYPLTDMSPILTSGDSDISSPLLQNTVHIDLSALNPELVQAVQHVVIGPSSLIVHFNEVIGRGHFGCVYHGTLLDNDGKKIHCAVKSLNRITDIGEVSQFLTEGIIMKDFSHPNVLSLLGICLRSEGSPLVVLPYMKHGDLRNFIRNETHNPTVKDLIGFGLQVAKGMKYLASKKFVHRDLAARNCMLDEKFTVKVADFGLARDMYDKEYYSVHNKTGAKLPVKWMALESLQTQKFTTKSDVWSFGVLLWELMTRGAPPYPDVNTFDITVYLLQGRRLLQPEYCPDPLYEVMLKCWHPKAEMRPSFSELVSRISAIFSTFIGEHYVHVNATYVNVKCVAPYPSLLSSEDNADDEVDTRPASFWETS
# [6] = molecular target: T4, EGFR on EGFR and cMET co-expressed …; test: flow cytometry, EBC-1 cells (co-express EGFR and cMET; both arms contribute)
# [7] = molecular target: T5, cMET on EGFR and cMET co-expressed …; test: as above
# [8] = molecular target: T4, EGFR on EGFR and cMET co-expressed …; test: flow cytometry, SNU-5 cells (co-express EGFR and cMET; both arms contribute)
# [9] = molecular target: T5, cMET on EGFR and cMET co-expressed …; test: as above
binder,measurement,setting,value
B1,binding result,[1],no binding (tested: about 130 nM)
same,binding result,[2],no binding (tested: about 130 nM)
same,EC50 (read off the curve),Human cMET,~4 nM
same,binding result,[3],no binding (tested: about 120 nM)
same,EC50 (read off the curve),[4],~10 nM
same,EC50 (read off the curve),[5],~10 nM
same,EC50 (read off the curve),[6],~1 nM
same,EC50 (read off the curve),[7],~1 nM
same,EC50 (read off the curve),[8],~2 nM
same,EC50 (read off the curve),[9],~2 nM

# Source: patent publication US20250381289A1 (Genmab, published 2025)
